Assay [1] concerns the target T1, recombinant human ICOS (Sino Biological Inc.) (human, UniProt Q9Y6W8 21-141).
T1 sequence (looked up): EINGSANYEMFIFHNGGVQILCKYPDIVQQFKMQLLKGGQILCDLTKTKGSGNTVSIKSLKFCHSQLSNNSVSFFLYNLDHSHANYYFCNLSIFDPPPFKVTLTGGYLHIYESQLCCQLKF
Kind of assay: ELISA, plate coated with 1 ug/mL recombinant human ICOS, anti-human IgG-HRP, OD450; antibody concentration not shown. How it is done: (§1) The plate was washed 5 times with PBST, and then blocked using PBST with 1% BSA, 300 μL/well, and incubated at 25° C. for 1 hour, and then washed 5 times with PBST. […] The horseradish peroxidase-labeled anti-human IgG antibody (Chemicon, catalog number AP309P) diluted 1:10000 in PBST with 1% BSA was then added, 100 μL per well, and incubated at 25° C. for 1 hour. The plate was washed 5 times with PBST. The colorimetric substrate TMB was added, 100 μL/well, and developed at room temperature for 10 minutes. 1M H₂SO₄ was added, 100 μL/well, to stop the development. The absorbance at 450 nm was read on a microplate reader.

Assay [2] has as its target recombinant cynomolgus PD-L1 (Sino Biological Inc.) (cynomolgus, UniProt G7PSE7 19-238). Kind of assay: ELISA, plate coated with 1 ug/mL recombinant cynomolgus PD-L1, anti-human IgG-HRP, OD450. How it is done: (§2) A 96-well high-adsorption ELISA plate was coated with 1 μg/mL of the recombinant human PD-L1, cynomolgus PD-L1, rat PD-L1 and mouse PD-L1 (all purchased from Sino Biological Inc.), at 100 μL per well using carbonate buffer solution, pH=9.6 at 4° C. overnight. The plate was washed 5 times with PBST, and then blocked using PBST with 1% BSA, 300 μL/well, and incubated at 25° C. for 1 hour, and then washed 5 times with PBST. The chimeric anti-human PD-L1 antibody samples serially diluted in PBST with 1% BSA were added, 100 μL/well, incubated at 25° C. for 1 hour, and then washed 5 times with PBST. The horseradish peroxidase-labeled anti-human IgG antibody (Chemicon, catalog number AP309P) diluted 1:10000 in PBST with 1% BSA was then added, 100 μL per well, and incubated at 25° C. for 1 hour. The plate was washed 5 times with PBST. The colorimetric substrate TMB was added, 100 μL/well, and developed at room temperature for 10 minutes. 1M H₂SO₄ was added, 100 μL/well, to stop the development. The absorbance at 450 nm was read on a microplate reader.
For orientation: ELISA stands for enzyme-linked immunosorbent assay.

For assay [3], the target named is recombinant human PD1 (Sino Biological Inc.) (human, UniProt Q15116 25-167). Kind of assay: ELISA, plate coated with 1 ug/mL recombinant human PD1, anti-human IgG-HRP, OD450; antibody concentration not shown. How it is done:
as §1

Assay [4] deals with T2, recombinant human PD-L1 (Sino Biological Inc.) (human, UniProt Q9NZQ7 19-239). Kind of assay: ELISA, plate coated with 1 ug/mL recombinant human PD-L1, anti-human IgG-HRP, OD450. The method, then: as §2
T2 sequence (Q9NZQ7 19-239 limits assumed): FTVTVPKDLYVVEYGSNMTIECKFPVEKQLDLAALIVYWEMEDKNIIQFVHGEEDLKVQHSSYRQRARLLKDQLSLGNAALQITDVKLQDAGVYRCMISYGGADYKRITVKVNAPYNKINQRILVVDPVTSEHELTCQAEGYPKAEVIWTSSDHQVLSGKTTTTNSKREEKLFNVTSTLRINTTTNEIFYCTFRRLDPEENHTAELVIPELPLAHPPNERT
Assay [5] has as its target T3, recombinant human PD-L1-Fc protein (human, UniProt Q9NZQ7 19-238, limits assumed).
T3 construct: Prepared by Beijing Hanmi Pharmaceutical; The GenBank number is NP_001254635.1
Kind of assay: blocking ELISA, plate coated with 1 ug/mL human PD-L1-Fc; blocked ligand biotin-labelled PD-1-Fc at 20 nM final, streptavidin-HRP, OD450. How it is done: A 96-well high-adsorption ELISA plate was coated with 1 μg/mL of the recombinant human PD-L1-Fc at 100 μL per well using carbonate buffer solution, pH=9.6 at 4° C. overnight. The plate was washed 5 times with PBST, and then blocked using PBST with 1% BSA, 300 μL/well, and incubated at 25° C. for 1 hour, and then washed 5 times with PBST. […] The Streptavidin-HRP (BD Pharmingen, catalog number 554066) diluted 1:1000 in PBST with 1% BSA was then added, 100 μL per well, and incubated at 25° C. for 1 hour. The plate was washed 5 times with PBST. The colorimetric substrate TMB was added, 100 μL/well, and developed at room temperature for 10 minutes. 1M H₂SO₄ was added, 100 μL/well, to stop the development. The absorbance at 450 nm was read on a microplate reader.

In assay [6] the target is T2, recombinant human PD-L1 (Sino …). Kind of assay: direct binding ELISA, plate coated with 1 ug/mL recombinant human PD-L1, anti-human IgG-HRP, OD450; the curve rises, the sheet labels the half-maximal value IC50. The method, then: as §2, with “human” for “human PD-L1, cynomolgus PD-L1, rat”, “(Sino” for “and mouse PD-L1 (all purchased from Sino”, “Inc.)” for “Inc.),”, “The chimeric anti-human PD-L1 antibody samples serially diluted in PBST with 1% BSA were added, 100 μL/well, incubated at 25° C. for 1 hour, and then washed 5 times with PBST.” left out

For assay [7] the target is unchanged. Kind of assay: affinity determination (dissociation constant), method not stated.
For assay [8] the target is unchanged. Kind of assay: SPR, Biacore X100. How it is done: This instrument utilizes optical surface plasmon resonance technology to detect the association and dissociation between the molecules coated on the biochip and the molecules to be tested. Association constants and dissociation constants were analyzed and calculated by Biacore X100 evaluation software. […]
(SPR reads the build-up and loss of mass on a sensor chip optically.)

The term EC50 denotes the concentration that produces a half-maximal response. What is called IC50 is the concentration that inhibits the measured activity by half. One may read the koff as a measure of how fast the partners let go of each other. Broadly, the Kd is the concentration at which binding is half-saturated. In general, kon refers to the rate constant with which the complex forms.

Chain of recombinant human PD1 (Sino Biological Inc.) (Q15116 25-167 limits assumed): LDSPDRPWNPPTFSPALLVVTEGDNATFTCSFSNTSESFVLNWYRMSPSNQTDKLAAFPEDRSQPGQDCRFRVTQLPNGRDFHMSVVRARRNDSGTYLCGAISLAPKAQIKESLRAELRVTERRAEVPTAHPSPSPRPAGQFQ
T3 sequence (Q9NZQ7 19-238 limits assumed): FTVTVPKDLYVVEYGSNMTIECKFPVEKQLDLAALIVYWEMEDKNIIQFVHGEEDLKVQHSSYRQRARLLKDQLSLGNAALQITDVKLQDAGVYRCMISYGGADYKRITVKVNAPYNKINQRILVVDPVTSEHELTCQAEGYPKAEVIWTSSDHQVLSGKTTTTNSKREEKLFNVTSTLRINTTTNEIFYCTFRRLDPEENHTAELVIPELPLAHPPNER
Chain of recombinant cynomolgus PD-L1 (Sino Biological Inc.) (G7PSE7 entry or part of it limits assumed): as the sequence (Q9NZQ7 19-238 limits assumed) above, with A33T, A34S, S62N, R68Q, Q82R, F173L, T185A, T192I, H215L counted along it

B1: chimeric anti-human PD-L1 monoclonal antibody (antibody, human IgG1, kappa, V domains shown)
VH: EVQLQQSGAELVKPGASVKLSCTASGFNIEDTYIHWVMQRPEQGLEWIGRIDPANGNTKYDPKFQGKATITADTSSNTAYLQLSSLTSEDTAVYYCGRGLGAWFAYWGQGTLVTVSA
VL: DIVMTQSHKVMSTSVGDRVTITCKASQDVHTAVAWIHQKPGQSPKLLIYSASNRYTGVPDRFTGSGSGTDFTFTISSVQAEDLAVYYCQQHYITPLTFGAGTTLELKR
notes: expressed in ExpiCHO cells; also called Chimeric mAb; Chimeric antibody
B1: the binding result in assay [1] and in assay [3] was “no binding” each time. For the same molecule, the EC50 in assay [2] is 0.074 nM; in assay [4] it was 0.056 nM; in assay [6], 0.021 nM. For the same molecule, the half-inhibitory concentration (IC50) in assay [5] came out at 1.08 nM. Besides, the values for the koff in assay [7] and in assay [8] were 0.000531 s⁻¹ and 0.000596 s⁻¹, respectively. Moreover, in assay [8], the Kd amounted to 0.63 nM. Besides, the kon in assay [8] was 946000 M⁻¹ s⁻¹.

The values above are taken from patent publication US20240301068A1 (BEIJING HANMI PHARMACEUTICAL, published 2024).
